The supplement of paper PMC7877785
± gives the uncertainty stated by the source.

Assay: self-splicing fitness, log relative to wild type (ln ratio); higher = more splicing; Tetrahymena group I intron in knt gene, E. coli kanamycin selection, DiMSum; sequences stand for … in CUCUCU…GGAGGGAAAAGUUAUCAGGCAUGCACCUGGUAGCUAGUCUUUAAACCAAUAGAUUGCAUCGGUUUAAAAGGCAAGACCGUCAAAUUGCGGGAAAGGGGUCAACAGCCGUUCAGUACCAAGUCUCAGGGGAAACUUUGAGAUGGCCUUGCAAAGGGUAUGGUAAUAAGCUGACGGACAUGGUCCUAACCACGCAGCCAAGUCCUAAGUCAACAGAUCUUCUGUUGAUAUGGAUGCAGUUCACAGACUAAAUGUCGGUCGGGGAAGAUGUAUUCUUCUCAUAAGAUAUAGUCGGACCUCUCCUUAAUGGGAGCUAGCGGAUGAAGUGAUGCAACACUGGAGCCGCUGGGAACUAAUUUGUAUGCGAAAGUAUAUUGAUUAGUUUUGGAGUACUCGUGGUCG
How it was run: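 Six replicate transformations of E. coli BL21(DE3) with a pET-22b(+) library were grown overnight at 37°C or 30°C. The library randomised all eight P1ex-region intron nucleotides, the intron lying in the knt kanamycin-resistance gene, and plates were LB agar with or without 25 μg/mL kanamycin plus 100 μg/mL carbenicillin, 50 μM IPTG and 0.2% rhamnose. Pooled colonies were amplicon-sequenced on an Illumina HiSeq 2500, and fitness is the DiMSum error-weighted combination of wild-type-normalised replicate fold changes, kanamycin versus none.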

Row | Sequence | self-splicing fitness (ln) (30 °C) | self-splicing fitness (ln) (37 °C)
1 | CUGGAGCAAUAUUACGUAUA | -3.12 ± 0.36 | -2.48 ± 0.3
2 | CUGGAGCAAUAUUACGUCGA | -3.15 ± 0.29 | -2.82 ± 0.34
3 | CUGGAGCAAUAUUACGUGAU | -2.53 ± 0.076 | -1.18 ± 0.078
4 | CUGGAGCAAUAUUACGUUGG | -2.89 ± 0.14 | -1.86 ± 0.15
5 | CUGUAGCAAUAUUACGAAAU | -3.22 ± 0.23 | -2.54 ± 0.26
6 | CUGUAGCAAUAUUACGAAGC | -4.57 ± 0.42 | -2.67 ± 0.38
7 | CUGUAGCAAUAUUACGACGA | -1.4 ± 0.19 | -0.118 ± 0.15
8 | CUGUAGCAAUAUUACGAGAA | – | -2.78 ± 0.38
9 | CUGUAGCAAUAUUACGAGAC | -2.77 ± 0.2 | -0.769 ± 0.14
10 | CUGUAGCAAUAUUACGCGAC | -2.56 ± 0.2 | -2.41 ± 0.28
11 | CUGUAGCAAUAUUACGCUGC | -3.17 ± 0.3 | –
12 | CUGUAGCAAUAUUACGGAAU | -2.18 ± 0.13 | -3.57 ± 0.32
13 | CUGUAGCAAUAUUACGGACG | -1.53 ± 0.12 | -0.319 ± 0.15
14 | CUGUAGCAAUAUUACGGGAU | -3.16 ± 0.26 | -2.28 ± 0.23
15 | CUGUAGCAAUAUUACGGGUA | -1.96 ± 0.35 | –
16 | CUGUAGCAAUAUUACGGUAU | -2.41 ± 0.15 | -2.08 ± 0.18
17 | CUGUAGCAAUAUUACGGUCC | -2.27 ± 0.25 | -2.71 ± 0.44
18 | CUGUAGCAAUAUUACGGUGA | -3.22 ± 0.22 | -2.28 ± 0.24
19 | CUGUAGCAAUAUUACGUAGG | -1.03 ± 0.075 | -0.77 ± 0.12
20 | CUGUAGCAAUAUUACGUCUA | – | -1.78 ± 0.39
21 | CUGUAGCAAUAUUACGUGAG | -1.31 ± 0.072 | -0.935 ± 0.096
22 | CUGUAGCAAUAUUACGUGGA | -3.85 ± 0.28 | -4.32 ± 0.42
23 | CUGUAGCAAUAUUACGUGGC | – | 0.0373 ± 0.2
24 | CUUAAGCAAUAUUACGAAAG | -2.9 ± 0.22 | -1.75 ± 0.18
25 | CUUAAGCAAUAUUACGAACC | – | -0.593 ± 0.37
26 | CUUAAGCAAUAUUACGAGAC | – | -3.26 ± 0.43

Row | Sequence | self-splicing fitness (ln) (30 °C) | self-splicing fitness (ln) (37 °C)
27 | CUUAAGCAAUAUUACGCAGC | -3.43 ± 0.25 | -1.93 ± 0.37
28 | CUUAAGCAAUAUUACGCAUC | – | -0.617 ± 0.29
29 | CUUAAGCAAUAUUACGCCCA | -2.46 ± 0.32 | -1.69 ± 0.48
30 | CUUAAGCAAUAUUACGCCUC | -1.85 ± 0.22 | –
31 | CUUAAGCAAUAUUACGCGAC | -1.83 ± 0.16 | -0.508 ± 0.23
32 | CUUAAGCAAUAUUACGCGCG | -1.54 ± 0.12 | -0.513 ± 0.17
33 | CUUAAGCAAUAUUACGCGUA | -2.75 ± 0.34 | -3.23 ± 0.29
34 | CUUAAGCAAUAUUACGCGUU | -4.44 ± 0.23 | -3.85 ± 0.25
35 | CUUAAGCAAUAUUACGGAGU | -2.92 ± 0.099 | -2.31 ± 0.12
36 | CUUAAGCAAUAUUACGGGUA | -2.7 ± 0.22 | -2.75 ± 0.38
37 | CUUAAGCAAUAUUACGGUUG | -1.95 ± 0.14 | -1.3 ± 0.14
38 | CUUAAGCAAUAUUACGUAAA | -3.93 ± 0.27 | -2.88 ± 0.36
39 | CUUAAGCAAUAUUACGUACU | -2.82 ± 0.16 | -2.67 ± 0.23
40 | CUUAAGCAAUAUUACGUAUC | – | -2.98 ± 0.33
41 | CUUAAGCAAUAUUACGUCAG | -0.948 ± 0.084 | -0.564 ± 0.1
42 | CUUAAGCAAUAUUACGUCCU | -3.41 ± 0.21 | -2.43 ± 0.19
43 | CUUAAGCAAUAUUACGUCGC | – | -1.65 ± 0.33
44 | CUUAAGCAAUAUUACGUCUC | -3.75 ± 0.33 | -2.11 ± 0.27
45 | CUUAAGCAAUAUUACGUCUU | -3.64 ± 0.24 | -3.11 ± 0.25
46 | CUUAAGCAAUAUUACGUUAU | -3.09 ± 0.14 | -2.51 ± 0.2
47 | CUUAAGCAAUAUUACGUUGU | -3.89 ± 0.2 | -1.64 ± 0.15
48 | CUUCAGCAAUAUUACGAAAA | -2.29 ± 0.2 | -3.03 ± 0.35
49 | CUUCAGCAAUAUUACGACCU | -2.42 ± 0.21 | -1.7 ± 0.27
50 | CUUCAGCAAUAUUACGAGCC | -2.29 ± 0.21 | -1.59 ± 0.3
51 | CUUCAGCAAUAUUACGAGGC | -4.72 ± 0.41 | -1.59 ± 0.4
52 | CUUCAGCAAUAUUACGCACG | -1.02 ± 0.085 | -0.456 ± 0.13
